Broadly, the IC50 is the concentration that gives 50% inhibition.

From US20070111944A1 (published 2007) come the findings set out here.

The target of test [1] is chimeric receptor consisting of the extracellular and transmembrane domain of VEGFR1 fused to the cytoplasmic domain of gp130 (UniProt P17948). In words: cell-based or functional assay.
A further test addresses T1, VEGF-R1/Fc (human, UniProt P17948-2 27-758, limits assumed).
T1 construct: Bought from R&D Systems; also called VEGF receptor 1; Flt-1; not shown: human immunoglobulin Fc domain
The test can be described thus: competition ELISA on captured VEGF-R1/Fc; competitor VEGF-A165 at 10 ng/ml, detected with biotinylated anti-VEGF-A165; VEGF-A165 at 10 ng/ml; VEGF-R1/Fc captured on plate. On the procedure:
1. […] 2. […] 6. […] 7. Biotinylated anti-VEGF-A₁₆₅ (10 ng/ml in Buffer 20, 100 μl) was added and incubated for 1 hr. […] 8. […] 9. […] 10. […] 11.

A further test deals with T2, VEGF-R2/Fc (human, UniProt P35968 20-764).
T2 construct: Bought from R&D Systems; also called VEGF receptor 2; not shown: human immunoglobulin Fc domain
In words: SPR (Biacore 2000), VEGF-B167 immobilised, receptor-Fc injected. On the procedure:
For control purposes binding of the receptors to VEGF-A₁₆₅ was also monitored. Both VEGF-B₁₆₇ and VEGF-A₁₆₅ were individually immobilised to a sensorchip using NHS/EDC chemistry according to the manufacturer's instructions. Briefly, 35 μl of NHS and EDC was injected onto the sensorchip at a flow rate of 5 μl/min to activate the sensor surface and enable covalent coupling of either VEGF-A₁₆₅ or VEGF-B₁₆₇. […] Post coupling, diaminoethane (50 mM, pH 9.0) was used to block any unbound activated sites on the sensor surface. Concentrated dimeric VEGF-B₁₆₇ (200 μg/ml) was diluted (1:10) in 20 mM sodium acetate and immobilized onto a separate channel on the sensorchip. Post coupling, diaminoethane (50 mM, pH 9.0) was used to block any unbound activated sites on the sensor surface.
At the end of each run, the surface of the sensorchip was regenerated using 2 cycles of phosphoric acid (0.1 M, 30 μl) at a flow of 50 μl/min. […] Both were diluted into 0.1% w/v BSA in PBS as a stock solution (50 μg/ml, storage −20° C.).
Background: Surface plasmon resonance follows binding to a sensor surface in real time, without labels.

chimeric receptor consisting of the extracellular and transmembrane domain of VEGFR1 fused to the cytoplasmic domain of gp130, sequence (P17948 other isoform, or with tags, fused parts or gaps mutant limits assumed): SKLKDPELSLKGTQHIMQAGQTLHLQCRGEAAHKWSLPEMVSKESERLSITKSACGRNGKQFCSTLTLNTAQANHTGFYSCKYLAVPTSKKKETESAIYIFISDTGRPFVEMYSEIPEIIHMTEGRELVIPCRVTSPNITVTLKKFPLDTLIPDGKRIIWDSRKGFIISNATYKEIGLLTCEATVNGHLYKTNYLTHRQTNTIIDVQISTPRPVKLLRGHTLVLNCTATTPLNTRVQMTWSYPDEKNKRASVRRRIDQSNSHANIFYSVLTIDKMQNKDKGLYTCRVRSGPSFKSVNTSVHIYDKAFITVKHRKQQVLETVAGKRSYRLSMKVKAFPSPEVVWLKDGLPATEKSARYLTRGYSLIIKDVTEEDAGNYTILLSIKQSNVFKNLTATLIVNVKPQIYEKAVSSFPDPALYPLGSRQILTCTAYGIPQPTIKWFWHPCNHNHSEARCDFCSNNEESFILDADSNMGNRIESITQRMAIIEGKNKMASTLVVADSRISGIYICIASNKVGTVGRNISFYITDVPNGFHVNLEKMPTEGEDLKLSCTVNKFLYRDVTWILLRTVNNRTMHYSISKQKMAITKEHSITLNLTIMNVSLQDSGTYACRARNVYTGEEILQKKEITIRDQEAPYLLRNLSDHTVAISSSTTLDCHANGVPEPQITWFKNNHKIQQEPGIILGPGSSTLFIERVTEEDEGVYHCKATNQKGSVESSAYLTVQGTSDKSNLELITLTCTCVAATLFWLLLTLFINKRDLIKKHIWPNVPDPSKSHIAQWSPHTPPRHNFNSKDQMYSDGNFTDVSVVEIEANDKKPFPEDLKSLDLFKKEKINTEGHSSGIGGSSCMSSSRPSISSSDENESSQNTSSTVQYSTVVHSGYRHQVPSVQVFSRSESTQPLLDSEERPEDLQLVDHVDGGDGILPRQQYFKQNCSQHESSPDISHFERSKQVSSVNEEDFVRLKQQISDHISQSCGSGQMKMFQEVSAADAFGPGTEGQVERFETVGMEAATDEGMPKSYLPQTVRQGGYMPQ
T2 sequence (P35968 20-764 limits assumed): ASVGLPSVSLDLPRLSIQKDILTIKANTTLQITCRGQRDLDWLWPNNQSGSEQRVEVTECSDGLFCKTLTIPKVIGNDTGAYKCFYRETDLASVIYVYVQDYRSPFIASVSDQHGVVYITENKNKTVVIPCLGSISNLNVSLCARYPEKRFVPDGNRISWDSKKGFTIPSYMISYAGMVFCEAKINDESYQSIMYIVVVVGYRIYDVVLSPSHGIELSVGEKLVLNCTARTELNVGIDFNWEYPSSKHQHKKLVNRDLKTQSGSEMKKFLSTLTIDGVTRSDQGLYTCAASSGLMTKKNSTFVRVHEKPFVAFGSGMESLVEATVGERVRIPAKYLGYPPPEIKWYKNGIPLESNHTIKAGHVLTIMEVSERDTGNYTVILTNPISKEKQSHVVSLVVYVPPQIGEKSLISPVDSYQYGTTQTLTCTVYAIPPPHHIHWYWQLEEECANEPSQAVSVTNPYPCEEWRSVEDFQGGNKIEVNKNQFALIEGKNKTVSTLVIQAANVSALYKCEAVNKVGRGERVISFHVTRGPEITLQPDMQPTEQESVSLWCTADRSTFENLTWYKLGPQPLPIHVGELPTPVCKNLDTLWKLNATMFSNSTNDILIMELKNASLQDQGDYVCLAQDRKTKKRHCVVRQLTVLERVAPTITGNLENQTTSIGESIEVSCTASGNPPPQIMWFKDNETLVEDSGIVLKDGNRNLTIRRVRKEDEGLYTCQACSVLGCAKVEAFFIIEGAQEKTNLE
T1 sequence (P17948 27-758 limits assumed, form in doubt): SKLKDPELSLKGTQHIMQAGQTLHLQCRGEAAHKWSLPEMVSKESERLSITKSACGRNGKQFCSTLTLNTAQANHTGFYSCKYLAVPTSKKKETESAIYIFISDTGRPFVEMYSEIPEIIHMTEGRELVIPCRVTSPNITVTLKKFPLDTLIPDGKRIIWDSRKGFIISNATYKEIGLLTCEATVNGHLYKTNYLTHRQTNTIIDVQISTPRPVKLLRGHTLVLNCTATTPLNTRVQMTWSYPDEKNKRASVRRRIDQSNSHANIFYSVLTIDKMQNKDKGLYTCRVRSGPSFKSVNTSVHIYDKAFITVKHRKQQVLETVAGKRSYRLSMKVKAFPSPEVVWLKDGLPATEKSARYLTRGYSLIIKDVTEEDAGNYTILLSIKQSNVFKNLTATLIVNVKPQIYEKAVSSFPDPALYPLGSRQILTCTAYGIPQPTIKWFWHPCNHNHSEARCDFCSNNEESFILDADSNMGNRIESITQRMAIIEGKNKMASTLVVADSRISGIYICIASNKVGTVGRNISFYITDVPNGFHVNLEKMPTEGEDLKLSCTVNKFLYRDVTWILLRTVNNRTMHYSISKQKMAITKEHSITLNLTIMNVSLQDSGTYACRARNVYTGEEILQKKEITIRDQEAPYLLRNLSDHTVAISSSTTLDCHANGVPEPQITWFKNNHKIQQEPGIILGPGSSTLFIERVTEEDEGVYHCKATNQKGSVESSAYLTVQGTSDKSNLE

Turning to “VEGF-A (from UniProt P15692 27-191) (ligand)”, in test [1], the luciferase reporter activity (ED50) lay within 0.01 to 0.05 µg/mL.

B1: refolded dimeric VEGF-B167 (ligand)
chain: APVSQPDAPGHQRKVVSWIDVYTRATCQPREVVVPLTVELMGTVAKQLVPSCVTVQRCGGCCPDDGLECVPTGQHQVRMQILMIRYPSSQLGEMSLEEHSQCECRPKKKDSAVKPDSPRPLCPRCTQHHQRPDPRTCRCRCRRRSFLRCQGRGLELNPDTCRCRKLRR
notes: also called purified dimeric VEGF-B167
For the molecule B1, in the test with VEGF-R1/Fc, the IC50 was around 0.02 µg/mL. The binding result with VEGF-R2/Fc is reported as “no binding (tested: 50 µg/ml stock diluted 1:10)”.
